Test results taken from US20260167693A1 (ANGELES THERAPEUTICS, published 2026).

T1: CD19-ECD-GGSG-NLuc-AcV5 (human)
T1 construct: also called CD19-GGSG-NLuc-AcV5; Flag-CD19-GGSG-NLuc-AcV5
T1 chain: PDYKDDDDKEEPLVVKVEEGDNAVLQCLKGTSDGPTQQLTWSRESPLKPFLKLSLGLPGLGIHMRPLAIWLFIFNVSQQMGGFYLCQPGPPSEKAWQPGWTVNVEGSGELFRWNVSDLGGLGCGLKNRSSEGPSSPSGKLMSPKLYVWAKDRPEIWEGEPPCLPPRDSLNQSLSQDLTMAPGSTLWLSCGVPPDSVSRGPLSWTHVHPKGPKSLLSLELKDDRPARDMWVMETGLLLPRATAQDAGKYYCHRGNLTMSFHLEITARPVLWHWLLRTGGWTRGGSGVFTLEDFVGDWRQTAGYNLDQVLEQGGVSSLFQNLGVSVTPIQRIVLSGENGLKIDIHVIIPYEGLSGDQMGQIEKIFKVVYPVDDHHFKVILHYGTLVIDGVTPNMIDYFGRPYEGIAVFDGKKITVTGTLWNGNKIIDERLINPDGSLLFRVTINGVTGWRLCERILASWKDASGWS

T2: human CD19 (human, UniProt P15391 20-556)
T2 sequence (looked up): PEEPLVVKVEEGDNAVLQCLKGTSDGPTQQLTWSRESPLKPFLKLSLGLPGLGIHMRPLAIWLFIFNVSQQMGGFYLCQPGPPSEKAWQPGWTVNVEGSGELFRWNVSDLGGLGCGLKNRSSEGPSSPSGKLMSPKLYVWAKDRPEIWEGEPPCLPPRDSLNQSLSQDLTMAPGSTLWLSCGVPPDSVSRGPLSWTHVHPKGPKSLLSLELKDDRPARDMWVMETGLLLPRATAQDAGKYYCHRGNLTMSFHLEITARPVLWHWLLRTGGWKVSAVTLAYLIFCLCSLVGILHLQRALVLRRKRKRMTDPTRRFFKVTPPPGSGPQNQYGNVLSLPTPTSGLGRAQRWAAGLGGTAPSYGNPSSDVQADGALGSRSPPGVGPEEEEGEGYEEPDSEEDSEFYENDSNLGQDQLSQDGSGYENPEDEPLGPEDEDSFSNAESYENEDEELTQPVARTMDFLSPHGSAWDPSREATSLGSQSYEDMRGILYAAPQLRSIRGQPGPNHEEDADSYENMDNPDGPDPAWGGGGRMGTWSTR


Target: T1, CD19-ECD-GGSG-NLuc-AcV5
Test: NLuc binding assay, SIR on Jurkat-NFAT-GFP cells

CD19-GGSG-NLuc (RLU)	Binder
68500 RLU	CD8SP-FMC63-vL-EAAAK-[hTCRb-KACIAH]-F-P2A-SP-FMC63-vH-EAAAK-v2-[hTCRa-CSDVP]-F-F2A-PAC (other, Polyprotein PRT 12435; also called 040617-C09) TCR beta: DIQMTQTTSSLSASLGDRVTISCRASQDISKYLNWYQQKPDGTVKLLIYHTSRLHSGVPSRFSGSGSGTDYSLTISNLEQEDIATYFCQQGNTLPYTFGGGTKLEITEAAAKEDLKNVFPPEVAVFEPSKAEIAHTQKATLVCLATGFYPDHVELSWWVNGKEVHSGVCTDPQPLKEQPALNDSRYCLSSRLRVSATFWQNPRNHFRCQVQFYGLSENDEWTQDRAKPVTQIVSAEAWGRADCGITSASYHQGVLSATILYEILLGKATLYAVLVSALVLMAMVKRKDSRG TCR alpha: EVKLQESGPGLVAPSQSLSVTCTVSGVSLPDYGVSWIRQPPRKGLEWLGVIWGSETTYYNSALKSRLTIIKDNSKSQVFLKMNSLQTDDTAIYYCAKHYYYGGSYAMDYWGQGTSVTVSSEAAAKIQNPDPAVYQLRDSKSSDKSVCLFTDFDSQTNVSQSKDSDVYITDKCVLDMRSMDFKSNSAVAWSNKSDFACANAFNNSIIPEDTFFPSSDVPCDVKLVEKSFETDTNLNFQNLSVIGFRILLLKVAGFNLLMTLRLWSS

The binders below were run against T2, human CD19 (assay: cell-based or functional assay).

Binder	NFAT-GFP (%) after overnight co-culture with RAJI cells
CD8SP-V5-[hTCRb-KACIAH]-F-P2A-CD8SP-CD19-hu-mROO5-vL-Gly-Ser-Linker-CD19-hu-mROO5-vH-Myc-[hTCRa-CSDVP]-F-F2A-PAC (other) TCR beta: GKPIPNPLLGLDSTGSGEDLKNVFPPEVAVFEPSKAEIAHTQKATLVCLATGFYPDHVELSWWVNGKEVHSGVCTDPQPLKEQPALNDSRYCLSSRLRVSATFWQNPRNHFRCQVQFYGLSENDEWTQDRAKPVTQIVSAEAWGRADCGITSASYHQGVLSATILYEILLGKATLYAVLVSALVLMAMVKRKDSRG TCR alpha: DIQMTQSPSSLSASVGDRVTITCKASDHINNWLAWYQQKPGQAPKLLIYGATTLETGVPSRFSGSGSGTDYTLTISSLQPEDFATYYCQQSWNTPWTFGQGTKLEIKRGGGGSGGGGSGGGGSQVQLQQPGAELVKPGASVKMSCKASGYAFSSYWINWMKQKPGQGLEWIGQIYPGDGDTNYNGKFKGRATLTADTSSSTAYMQLSSLTSEDSAVYFCARSITTVVGCAMDYWGQGTSVTVSSEQKLISEEDGSGIQNPDPAVYQLRDSKSSDKSVCLFTDFDSQTNVSQSKDSDVYITDKCVLDMRSMDFKSNSAVAWSNKSDFACANAFNNSIIPEDTFFPSSDVPCDVKLVEKSFETDTNLNFQNLSVIGFRILLLKVAGFNLLMTLRLWSS	9.55%
CD8SP-CD19-MOR0028-vL-Myc2-[hTCRb-KACIAH]-F-P2A-SP-CD19-MOR0028-vH-Myc4-[hTCRa-CSDVP]-F-F2A-PAC (other, also called 022817-L08) TCR beta: DIVMTQSPATLSLSPGERATLSCRSSKSLQNVNGNTYLYWFQQKPGQSPQLLIYRMSNLNSGVPDRFSGSGSGTEFTLTISSLEPEDFAVYYCMQHLEYPITFGAGTKLEIKEQKLISEEDLGSGEDLKNVFPPEVAVFEPSKAEIAHTQKATLVCLATGFYPDHVELSWWVNGKEVHSGVCTDPQPLKEQPALNDSRYCLSSRLRVSATFWQNPRNHFRCQVQFYGLSENDEWTQDRAKPVTQIVSAEAWGRADCGITSASYHQGVLSATILYEILLGKATLYAVLVSALVLMAMVKRKDSRG TCR alpha: EVQLVESGGGLVKPGGSLKLSCAASGYTFTSYVMHWVRQAPGKGLEWIGYINPYNDGTKYNEKFQGRVTISSDKSISTAYMELSSLRSEDTAMYYCARGTYYYGTRVFDYWGQGTLVTVSSEQKLISEEDLGSGIQNPDPAVYQLRDSKSSDKSVCLFTDFDSQTNVSQSKDSDVYITDKCVLDMRSMDFKSNSAVAWSNKSDFACANAFNNSIIPEDTFFPSSDVPCDVKLVEKSFETDTNLNFQNLSVIGFRILLLKVAGFNLLMTLRLWSS	31.6%
CD8SP-CD19-hu-mROO5-vL-[hTCRa-CSDVP]-F-F2A-SP-CD19-hu-mROO5-vH-[hTCRb-KACIAH]-F-P2A-PAC (other) TCR alpha: DIQMTQSPSSLSASVGDRVTITCKASDHINNWLAWYQQKPGQAPKLLIYGATTLETGVPSRFSGSGSGTDYTLTISSLQPEDFATYYCQQSWNTPWTFGQGTKLEIKRIQNPDPAVYQLRDSKSSDKSVCLFTDFDSQTNVSQSKDSDVYITDKCVLDMRSMDFKSNSAVAWSNKSDFACANAFNNSIIPEDTFFPSSDVPCDVKLVEKSFETDTNLNFQNLSVIGFRILLLKVAGFNLLMTLRLWSS TCR beta: QVQLQQPGAELVKPGASVKMSCKASGYAFSSYWINWMKQKPGQGLEWIGQIYPGDGDTNYNGKFKGRATLTADTSSSTAYMQLSSLTSEDSAVYFCARSITTVVGCAMDYWGQGTSVTVSSEDLKNVFPPEVAVFEPSKAEIAHTQKATLVCLATGFYPDHVELSWWVNGKEVHSGVCTDPQPLKEQPALNDSRYCLSSRLRVSATFWQNPRNHFRCQVQFYGLSENDEWTQDRAKPVTQIVSAEAWGRADCGITSASYHQGVLSATILYEILLGKATLYAVLVSALVLMAMVKRKDSRG	52.4%
CD8SP-CD19-hu-mROO5-vL-[hTCRb-KACIAH]-F-P2A-SP-CD19-hu-mROO5-vH-[hTCRa-CSDVP]-F-F2A-PAC (other) TCR beta: DIQMTQSPSSLSASVGDRVTITCKASDHINNWLAWYQQKPGQAPKLLIYGATTLETGVPSRFSGSGSGTDYTLTISSLQPEDFATYYCQQSWNTPWTFGQGTKLEIKREDLKNVFPPEVAVFEPSKAEIAHTQKATLVCLATGFYPDHVELSWWVNGKEVHSGVCTDPQPLKEQPALNDSRYCLSSRLRVSATFWQNPRNHFRCQVQFYGLSENDEWTQDRAKPVTQIVSAEAWGRADCGITSASYHQGVLSATILYEILLGKATLYAVLVSALVLMAMVKRKDSRG TCR alpha: QVQLQQPGAELVKPGASVKMSCKASGYAFSSYWINWMKQKPGQGLEWIGQIYPGDGDTNYNGKFKGRATLTADTSSSTAYMQLSSLTSEDSAVYFCARSITTVVGCAMDYWGQGTSVTVSSIQNPDPAVYQLRDSKSSDKSVCLFTDFDSQTNVSQSKDSDVYITDKCVLDMRSMDFKSNSAVAWSNKSDFACANAFNNSIIPEDTFFPSSDVPCDVKLVEKSFETDTNLNFQNLSVIGFRILLLKVAGFNLLMTLRLWSS	71.8%

Results, then the binder that gave them:

NFAT-GFP (%) after overnight co-culture with RAJI cells	Binder
4.49%	CD8SP-CD19Bu12-vL-V5-[hTCRb-WT]-F-P2A-CD19Bu12-vH-Myc-[hTCRa-WT]-F-F2A-PAC (other) TCR beta: EIVLTQSPATLSLSPGERATLSCSASSSVSYMHWYQQKPGQAPRLLIYDTSKLASGIPARFSGSGSGTDFTLTISSLEPEDVAVYYCFQGSVYPFTFGQGTKLEIKRGKPIPNPLLGLDSTGSGEDLKNVFPPEVAVFEPSEAEISHTQKATLVCLATGFYPDHVELSWWVNGKEVHSGVSTDPQPLKEQPALNDSRYCLSSRLRVSATFWQNPRNHFRCQVQFYGLSENDEWTQDRAKPVTQIVSAEAWGRADCGFTSESYQQGVLSATILYEILLGKATLYAVLVSALVLMAMVKRKDSRG TCR alpha: QVQLQESGPGLVKPSQTLSLTCTVSGGSISTSGMGVGWIRQHPGKGLEWIGHIWWDDDKRYNPALKSRVTISVDTSKNQFSLKLSSVTAADTAVYYCARMELWSYYFDYWGQGTLVTVSSEQKLISEEDGSGIQNPDPAVYQLRDSKSSDKSVCLFTDFDSQTNVSQSKDSDVYITDKTVLDMRSMDFKSNSAVAWSNKSDFACANAFNNSIIPEDTFFPSPESSCDVKLVEKSFETDTNLNFQNLSVIGFRILLLKVAGFNLLMTLRLWSS
6.77%	CD8SP-pre-TCRa-del48-F-F2A-CD8SP-CD19-hu-mRO05-1-scFv-V5-[hTCRb-S57C-opt]-F-P2A-Pac (other) TPFPSLAPPIMLLVDGKQQMVVVCLVLDVAPPGLDSPIWFSAGNGSALDAFTYGPSPATDGTWTNLAHLSLPSEELASWEPLVCHTGPGAEGHSRSTQPMHLSGEASTARTCPQEPLRGTPGGALWLGVLRLLLFKLLLFDLLLTCSCLCDPAGPLPSPATTTRLRALGSHRLHPATETGGREATSSPRPQPRDRRWGDTPPGRKPGSPV TCR beta: DIQMTQSPSSLSASVGDRVTITCKASDHINNWLAWYQQKPGQAPKLLIYGATTLETGVPSRFSGSGSGTDYTLTISSLQPEDFATYYCQQSWNTPWTFGQGTKLEIKRGGGGSGGGGSGGGGSQVQLQQPGAELVKPGASVKMSCKASGYAFSSYWINWMKQKPGQGLEWIGQIYPGDGDTNYNGKFKGRATLTADTSSSTAYMQLSSLTSEDSAVYFCARSITTVVGCAMDYWGQGTSVTVSSGKPIPNPLLGLDSTGSGEDLKNVFPPEVAVFEPSEAEISHTQKATLVCLATGFYPDHVELSWWVNGKEVHSGVCTDPQPLKEQPALNDSRYCLSSRLRVSATFWQNPRNHFRCQVQFYGLSENDEWTQDRAKPVTQIVSAEAWGRADCGFTSESYQQGVLSATILYEILLGKATLYAVLVSALVLMAMVKRKDSRG
